Source: US11135301B2, “Triblock polypeptide-based nanoparticles for the delivery of hydrophilic drugs” (Duke University, priority 2016, dated 2021)
Several values for one entry are separate records, joined by “and”; a condition that tells them apart may be missing. Identical values can stand only once. Counter-ions that a name gives are not always drawn.

Legend:
[1] = Dynamic light scattering (hydrodynamic radius); type: physicochemical; conditions: ATBP or ATBP-SMM conjugate nanoparticles, DLS in PBS at 22° C.
Method: (§1) Static and Dynamic Light Scattering:
(§2) Static and dynamic light scattering measurements were performed on an ALV/CGS-3 goniometer system (Langen, Germany) to determine the Rh and Rg of the ATBP and ATBP-SMM nanoparticle. For the ALV/CGS-3 goniometer system, ATBP and ATBP-SMM conjugates were resuspended in PBS and filtered through 0.22 μm Millex-GV filters into a 10 mm diameter disposable borosilicate glass tube (Fisher). SLS and DLS were measured simultaneously at 22° C. for angles between 30°-150° at 5° increments, where the measurements at each angle was of 3 runs for 15 seconds. The differential refractive index (dn/dc) was quantified by determining the refractive index at five different dilutions using an Abbemat 500 refractometer (Anton Paar, Graz, Austria). DLS data were analyzed by fitting the autocorrelation function to a biexponential decay using the HDRC software package (Germany). The Rh was plotted against angle and extrapolated to zero scattering angle in order to eliminate the effect of the form factor and observe the true hydrodynamic radius. Partial Zimm plots were used to analyze the SLS measurements and ALV/Dynamic and Static FIT and PLOT software was used to determine the Rg and MW of the nanoparticles. The Nagg was calculated by dividing the MW of the nanoparticles by the MW of the ATBP or ATBP-SMM conjugate.
(§3) The detailed procedure was identical to that used to characterize ATBP-SMM conjugates.

[2] = Temperature-programmed turbidimetry (transition temperature Tt); type: physicochemical; conditions: for Tt, Concentration 25 μM / Tt, Concentration 50 μM / Tt, Concentration 100 μM: ATBP or ATBP-SMM conjugate in PBS; for Tt, Concentration 25 μM: ATBP concentration 25 μM; for Tt, Concentration 50 μM: ATBP concentration 50 μM; for Tt, Concentration 100 μM: ATBP concentration 100 μM
Method: Temperature-Programmed Turbidimetry:
To determine the Tt ATBP-SMM conjugate or parent ATBP were resuspended in PBS at ATBP concentrations of […] and the optical density of each sample was measured at 350 nm by ramping the temperature at a rate of 1° C./min on a temperature-controlled UV-vis spectrophotometer (Cary 300 Bio; Varian Instruments, Palo Alto, Calif.). The Tt was determined from the inflection point of the turbidity profile. […]

[3] = Pyrene fluorescence assay (critical aggregation concentration); type: physicochemical
Method: The CAC of ATBP and ATBP-SMM conjugates were determined by fluorescence spectroscopy using pyrene which was utilized as a probe of the local hydrophobicity. The ratio of the first fluorescence emission peak (I370-373) and the third peak (I381-394) were measured at different ATBP concentrations. The inflection point of the curves was used to determine the CAC.
ATBP-GEM was characterized by DLS, SLS, cryo-TEM, AFM, temperature programmed turbidimetry and pyrene fluorescence assay. The detailed procedure was identical to that used to characterize ATBP-SMM conjugates.

[4] = Static light scattering (Rg, Nagg, shape factor); type: physicochemical; conditions: for ρ (Rg/Rh) shape factor: computed from DLS and SLS data; for Nagg (chains per nanoparticle) / Rg: nanoparticles; for Nagg (chains per nanoparticle): SLS; for Rg: SLS partial Zimm plot
Method: as §1, §2, §3

[5] = SMM conjugation ratio by Ellman's reagent assay; type: physicochemical
Method: Determination of SMM Conjugation Ratio:
Following purification, 2-3 mg of lyophilized ATBP was dissolved in 1 mL ddH20. In order to break any pre-existing disulfide bonds between unconjugated cysteine residues, 100 μL of the conjugate was incubated with 100 μL of Immobilized TCEP Reducing Gel (Thermo Fisher Scientific; Rockford, Ill.) for 1 hr at 25° C. Included spin columns were utilized to separate the TCEP beads from the ATBP conjugates. The solution was then split for use in two parallel assays. To determine the ATBP concentration, a 96-well bicinchoninic acid assay (Thermo Fisher Scientific) was used on a Victor3™ microplate reader (Perkin Elmer; Waltham, Mass.). 10 μL of ATBP solution was mixed with 200 μL of BCA working reagent, incubated for 30 min at 37° C., and was compared to an ATBP standard curve (100, 50, 25, 10, 5, 0 μM) fit to a 2nd order polynomial in order to estimate the ATBP concentration for the absorbance at 560 nm. Each conjugate was measured in triplicate. To determine the concentration of free thiols, a 96-well Ellman's assay was developed for use on the Victor3™ microplate reader at an absorbance of 405 nm. 40 μL of an ATBP solution was mixed with 200 μL of a working reagent (25 μM Ellman's reagent in 100 mM phosphate buffer, 1 mM EDTA, pH 8.0), incubated for 2 h at 25° C., and was compared to a standard curve of the ATBP prior to conjugation (100, 50, 25, 10, 5, 0 μM). […] The conjugation ratio was the difference between the number of cysteines (8/ATBP) and the calculated number of free cysteines.

[6] = tested on: HCT116 human colon cancer cells; experiment: In vitro cytotoxicity (MTS), HCT116; type: cell-based; conditions: HCT-116, 72 h, HCT-116 cells, GEM equivalent
Method: (§4) HCT116 and Colo205 human colon cancer cells were procured from Duke Cell Culture Facility and were cultured in complete media containing Minimum Essential Medium Eagle (MEME) supplemented with 10% Fetal Bovine Serum (FBS). Cells were maintained at 37° C. and 5% CO2 and passaged every 2-3 days. […] 20 μL of CellTiter 96 AQueous™ (Promega; Madison, Wis.) 3-(4,5,-[…])-5-(3-carboxymethoxyphenyl)-2-(4-sulfophenyl)-2H-tetrazolium (MTS) solution was added to each well and incubated at 37° C. After 2 h of incubation, the absorbance of the solution was measured at 490 nm with a Victor3 microplate reader (Perkin Elmer; Waltham, Mass.).

[7] = tested on: subcutaneous HCT116 tumors; experiment: Tumor regression, subcutaneous HCT116 xenograft; type: in vivo, mice; conditions: 25 mg·kg^−1 GEM equivalent i.v. on day 0, 2 and 4, n=6
Method: The PBS control or drugs were administered by tail vein infusion (50 μL/min) of 500 μL. Tumor dimensions and BW were determined 3-4 times a week, and the tumor volume was calculated using the equation: volume [mm^3]=length×width×width×1/2.
BW of mice were monitored and the mice were euthanized upon exceeding 15% loss in BW or if their tumors volume was greater than 1000 mm^3. […] The maximum tolerated dose (MTD) was determined in mice with tumors. Kaplan-Meier analysis was used to compare the cumulative survival and the Sidak test, Tukey Test, Wilcoxon test were carried out using GraphPad Prism 6 software.

[8] = reported value in nude mice; cited from earlier work
[9] = tested on: Colo205 human colon cancer cells; experiment: In vitro cytotoxicity (MTS), Colo205; type: cell-based; conditions: COLO 205, 72 h, Colo 205 cells, GEM equivalent
Method: as §4

[10] = Table 1, ATBP or ATBP-SMM conjugate, pyrene assay

## CCN1C(=O)C=CC1=O [SMM 6, N-ethyl maleimide]
[1]
  Rh: 62.3 nm
[2]
  Tt, Concentration 25 μM: 47 C
  Tt, Concentration 50 μM: 46 C
  Tt, Concentration 100 μM: 40 C
[3]; [10]
  CAC: 3.8 µM
[4]
  ρ (Rg/Rh) shape factor: 1.004
  Nagg (chains per nanoparticle): 115
  Rg: 62.5 nm
[5]
  #SMM/ATBP (number of SMM conjugated per ATBP): 7.1

## CN1C(=O)C=CC1=O [SMM 5, N-methyl maleimide]
[1]
  Rh: 46.8 nm
[2]
  Tt, Concentration 25 μM: 45 C
  Tt, Concentration 50 μM: 44 C
  Tt, Concentration 100 μM: 42 C
[3]; [10]
  CAC: 4.9 µM
[4]
  ρ (Rg/Rh) shape factor: 0.978
  Nagg (chains per nanoparticle): 62
  Rg: 45.7 nm
[5]
  #SMM/ATBP (number of SMM conjugated per ATBP): 6.8

## CC(C)(C)N1C(=O)C=CC1=O [SMM 8, N-^tbutyl maleimide]
[1]
  Rh: 46.2 nm
[2]
  Tt, Concentration 25 μM: 44 C
  Tt, Concentration 50 μM: 47 C
  Tt, Concentration 100 μM: 41 C
[3]; [10]
  CAC: 1.5 µM
[4]
  ρ (Rg/Rh) shape factor: 0.963
  Nagg (chains per nanoparticle): 93
  Rg: 44.5 nm
[5]
  #SMM/ATBP (number of SMM conjugated per ATBP): 6.4

## CS(=O)(=O)OCCN1C(=O)C=CC1=O [SMM 3, N-2-Maleimidoethyl mesylate]
[1]
  Rh: 109.1 nm
[2]
  Tt, Concentration 25 μM: 45 C
  Tt, Concentration 50 μM: 42 C
  Tt, Concentration 100 μM: 38 C
[3]; [10]
  CAC: 3.2 µM
[4]
  ρ (Rg/Rh) shape factor: 1.06
  Nagg (chains per nanoparticle): 219
  Rg: 115.6 nm
[5]
  #SMM/ATBP (number of SMM conjugated per ATBP): 6.9

## Cl.NCCN1C(=O)C=CC1=O [SMM 2, N-1-(2-Amino-ethyl)-pyrrole-2,5-dione hydrochloride]
[1]
  Rh: 123.5 nm
[2]
  Tt, Concentration 25 μM: 49 C
  Tt, Concentration 50 μM: 46 C
  Tt, Concentration 100 μM: 41 C
[3]; [10]
  CAC: 6.6 µM
[4]
  ρ (Rg/Rh) shape factor: 1.14
  Nagg (chains per nanoparticle): 50
  Rg: 141.0 nm
[5]
  #SMM/ATBP (number of SMM conjugated per ATBP): 6.9

## Nc1ccn([C@@H]2O[C@H](CO)[C@@H](O)C2(F)F)c(=O)n1 [GEM, Gemcitabine]
[6]
  IC50: ~4.1 nM
[7]
  median survival time: 21 days
[7]; 12 days after treatment
  mean tumor volume: 343 mm^3
[8]
  terminal half-life: 3.4 h
[9]
  IC50: ~46.4 nM

## O=C1C=CC(=O)N1c1ccccc1 [SMM 7, N-Phenyl maleimide]
[1]
  Rh: 49.1 nm
[2]
  Tt, Concentration 25 μM: 48 C
  Tt, Concentration 50 μM: 44 C
  Tt, Concentration 100 μM: 41 C
[3]; [10]
  CAC: 1.6 µM
[4]
  ρ (Rg/Rh) shape factor: 0.905
  Nagg (chains per nanoparticle): 112
  Rg: 44.4 nm
[5]
  #SMM/ATBP (number of SMM conjugated per ATBP): 7.0

## O=C1C=CC(=O)N1O [SMM 1, N-hydroxymaleimide]
[1]
  Rh: 87.3 nm
[2]
  Tt, Concentration 25 μM: 49 C
  Tt, Concentration 50 μM: 46 C
  Tt, Concentration 100 μM: 41 C
[3]; [10]
  CAC: 8.2 µM
[4]
  ρ (Rg/Rh) shape factor: 0.81
  Nagg (chains per nanoparticle): 41
  Rg: 77.0 nm
[5]
  #SMM/ATBP (number of SMM conjugated per ATBP): 7.4

B1: SKGPG-(AGVPG)160-(YG)6-(CGG)8-WP (protein)
chain: SKGPGAGVPGAGVPGAGVPGAGVPGAGVPGAGVPGAGVPGAGVPGAGVPGAGVPGAGVPGAGVPGAGVPGAGVPGAGVPGAGVPGAGVPGAGVPGAGVPGAGVPGAGVPGAGVPGAGVPGAGVPGAGVPGAGVPGAGVPGAGVPGAGVPGAGVPGAGVPGAGVPGAGVPGAGVPGAGVPGAGVPGAGVPGAGVPGAGVPGAGVPGAGVPGAGVPGAGVPGAGVPGAGVPGAGVPGAGVPGAGVPGAGVPGAGVPGAGVPGAGVPGAGVPGAGVPGAGVPGAGVPGAGVPGAGVPGAGVPGAGVPGAGVPGAGVPGAGVPGAGVPGAGVPGAGVPGAGVPGAGVPGAGVPGAGVPGAGVPGAGVPGAGVPGAGVPGAGVPGAGVPGAGVPGAGVPGAGVPGAGVPGAGVPGAGVPGAGVPGAGVPGAGVPGAGVPGAGVPGAGVPGAGVPGAGVPGAGVPGAGVPGAGVPGAGVPGAGVPGAGVPGAGVPGAGVPGAGVPGAGVPGAGVPGAGVPGAGVPGAGVPGAGVPGAGVPGAGVPGAGVPGAGVPGAGVPGAGVPGAGVPGAGVPGAGVPGAGVPGAGVPGAGVPGAGVPGAGVPGAGVPGAGVPGAGVPGAGVPGAGVPGAGVPGAGVPGAGVPGAGVPGAGVPGAGVPGAGVPGAGVPGAGVPGAGVPGAGVPGAGVPGAGVPGAGVPGAGVPGAGVPGAGVPGAGVPGAGVPGAGVPGAGVPGAGVPGAGVPGAGVPGAGVPGAGVPGAGVPGAGVPGAGVPGAGVPGAGVPGAGVPGAGVPGAGVPGAGVPGAGVPGYGYGYGYGYGYGCGGCGGCGGCGGCGGCGGCGGCGGWP
[1]
  Rh: 50 nm and 50.1 nm
[2]
  Tt, Concentration 25 μM: 47 C
  Tt, Concentration 50 μM: 44 C
  Tt, Concentration 100 μM: 40 C
[2]; FIG. 3(G), thermal turbidimetry at 350 nm
  Tt: 47 °C
[3]; [10]
  CAC: 3.6 µM
[3]; pyrene fluorescence assay
  CAC: about 3.6 μM
[4]
  ρ (Rg/Rh) shape factor: 0.85
  Nagg (chains per nanoparticle): 62
  Rg: 42.6 nm
